Measured values taken from paper PMC6146835.
pKd: −log10 of the molar value.

Test system: HBG-4kb ZF (synthetic 6-zinc-finger DNA-binding domain) (synthetic construct)
Assay: EMSA
Settings: 10 mM Tris pH 7.5, 50 mM KCl, 5 mM MgCl2, 100 uM ZnCl2, 1 mM DTT, 0.05% Triton X-100, 2.5% glycerol, 100 ng herring sperm DNA per 20 ul, 15 nM Cy5-dsDNA …

GAGAACTTAGTGGGGGAAAAAAAGCAGAGAGTATAT (double strand) [HBG-4kb off-target (2-nt mutant)]
pKd: 7.05

GAGAACTTAGTGGGGGAAAGCAAGCAGAGAGTATAT (double strand) [HBG-4kb on-target]
pKd: 7.53
